Tests used:
[1] = biological target: T1, recombinant human Activin A (Homo sapiens, UniProt P08476); experiment: MSD platform-based binding assay to plate-bound Activin A; settings: 3× serial dilutions of culture supernatants of HEK293T cells transfected with mmRNA constructs
T1 sequence (P08476 311-426): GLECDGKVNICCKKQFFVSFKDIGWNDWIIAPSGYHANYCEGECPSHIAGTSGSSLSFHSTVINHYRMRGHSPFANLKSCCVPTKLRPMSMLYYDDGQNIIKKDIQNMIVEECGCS
Description: The binding by a recombinant human ACVR2B-Fc fusion protein to activin A (also known as Inhibin beta A) was characterized using a Meso Scale Discovery (MSD) platform-based assay. Briefly, Activin A was coated on a plate and 8× serial dilutions of the purified recombinant human ACVR2B-Fc fusion protein were also added in a series of wells. The protein captured by the plate-bound Activin A was detected using an anti-human Fc antibody and a SULFO-TAG conjugated secondary antibody.
(§1) The binding to Activin A by the GLP-1-Fc-ACVR2B fusion protein produced using the mmRNA constructs was investigated using a Meso Scale Discovery (MSD) platform-based assay. Briefly, HEK293T cells were transfected with each mRNA construct using lipofectamine 2000, and culture supernatants were collected after 48 hours. Activin A was coated on a plate, and 3× serial dilutions of the culture supernatants were added to the plate for capture by the plate-bound Activin A. The protein captured by the plate-bound Activin A was detected using an anti-human Fc antibody and a SULFO-TAG conjugated secondary antibody. The MSD signals generated by the culture supernatants of HEK293T cells transfected with different mmRNA constructs were plotted as a line graph.

recombinant human GDF-8 = biological target: T2, recombinant human GDF-8 (Homo sapiens, UniProt O14793); experiment: MSD platform-based binding assay to plate-bound GDF-8; settings: 3× serial dilutions of culture supernatants of HEK293T cells transfected with mmRNA constructs
T2 sequence (O14793 267-375): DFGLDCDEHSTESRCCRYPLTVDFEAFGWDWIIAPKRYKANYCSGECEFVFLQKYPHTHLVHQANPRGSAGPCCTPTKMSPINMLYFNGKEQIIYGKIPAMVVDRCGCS
Description: The binding by a recombinant human ACVR2B-Fc fusion protein to GDF-8 (also known as myostatin) was characterized using a Meso Scale Discovery (MSD) platform-based assay. Briefly, GDF-8 was coated on a plate and 8× serial dilutions of the purified recombinant human ACVR2B-Fc fusion protein were also added in a series of wells. The protein captured by the plate-bound GDF-8 was detected using an anti-human Fc antibody and a SULFO-TAG conjugated secondary antibody.
as §1, with “GDF-8” for “Activin A”, “GDF-8.” for “Activin A.”

B1: GLP-1-Fc-ACVR2B chimeric protein: GLP-1 fused to ACVR2B extracellular domain via a hinge-CH2-CH3 Fc domain derived from IgG1; SEQ ID NO: 154 (protein)
chain: SGRGEAETRECIYYNANWELERTNQSGLERCEGEQDKRLHCYASWRNSSGTIELVKKGCWLDDFNCYDRQECVATEENPQVYFCCCEGNFCNERFTHLPEAGGPEVTYEPPPTAPTLLT
[1]
  binding to Activin A: binds to the human Activin A
Recombinant human GDF-8
  binding to GDF-8: binds to the human GDF-8

— patent US20250066446A1, “FUSION PROTEINS FOR THE TREATMENT OF CARDIOMETABOLIC DISEASES” (Shattuck Labs, Inc., priority 2022, published 2025)
